# From patent publication US20030133912A1 (published 2003)
# T1: Human coxsackie-adenovirus receptor (CAR) expressed on CHO cells (human, UniProt P78310 20-365)
# T1 sequence: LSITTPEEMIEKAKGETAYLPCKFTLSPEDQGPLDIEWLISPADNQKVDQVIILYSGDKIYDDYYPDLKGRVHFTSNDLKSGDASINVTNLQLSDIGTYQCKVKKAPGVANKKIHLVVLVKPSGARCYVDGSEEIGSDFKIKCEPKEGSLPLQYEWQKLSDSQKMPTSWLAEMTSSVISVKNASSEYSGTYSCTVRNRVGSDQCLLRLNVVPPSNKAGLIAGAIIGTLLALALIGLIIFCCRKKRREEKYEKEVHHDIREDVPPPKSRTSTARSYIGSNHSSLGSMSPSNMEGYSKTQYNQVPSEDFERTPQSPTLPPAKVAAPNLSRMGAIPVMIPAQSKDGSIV
# B1: Adenovirus type 5 (Ad5) fiber, wild type (other)
# chain: MKRARPSEDTFNPVYPYDTETGPPTVPFLTPPFVSPNGFQESPPGVLSLRLSEPLVTSNGMLALKMGNGLSLDEAGNLTSQNVTTVSPPLKKTKSNINLEISAPLTVTSEALTVAAAAPLMVAGNTLTMQSQAPLTVHDSKLSIATQGPLTVSEGKLALQTSGPLTTTDSSTLTITASPPLTTATGSLGIDLKEPIYTQNGKLGLKYGAPLHVTDDLNTLTVATGPGVTINNTSLQTKVTGALGFDSQGNMQLNVAGGLRIDSQNRRLILDVSYPFDAQNQLNLRLGQGPLFINSAHNLDINYNKGLYLFTASNNSKKLEVNLSTAKGLMFDATAIAINAGDGLEFGSPNAPNTNPLKTKIGHGLEFDSNKAMVPKLGTGLSFDSTGAITVGNKNNDKLTIWTTPAPSPNCRLNAEKDAKLTLVLTKCGSQILATVSVLAVKGSLAPISGTVQSAHLIIRFDENGVLLNNSFLDPEYWNFRNGDLTEGTAYTNAVGFMPNLSAYPKSHGKTAKSNIVSQVYLNGDKTKPVTLTITLNGTQETGDTTPSAYSMSFSWDWSGHNYINEIFATSSYTFSYIAQE
# notes: also called Ad5GFP; Ad5RSVeGFP
# B2: Chimeric Ad5/30 fiber (Ad5 tail, Ad30 shaft and knob) on virus Ad5GFPf30 (other)
# chain: MKRARPSEDTFNPVYPYDTETGPPTVPFLTPPFVSPNGFQESPPGVLSLKLADPIAITNGDVSLKVGGGLTVEQDSGNLSVNPKAPLQVGTDKKLELALAPPFDVRDNKLAILVGDGLKVIDRSISDLPGLLNYLVVLTGKGIGNEELKNDDGSNKGVGLCVRIGEGGGLTFDDKGYLVAWNNKHDIRTIWTTLDPSPNCKIDIEKDSKLTLVLTKCGSQILANVSLIIVNGKFKILNNKTDPSLPKSFNIKLLFDQNGVLLENSNIEKQYLNFRSGDSILPEPYKNAIGFMPNLLAYAKATTDQSKIYARNTIYGNIYLDNQPYNPVVIKITFNNEADSAYSITFNYSWTKDYDNIPFDSTSFTFSYIAQE
# notes: also called Ad5RSVeGFPf30; AdGFPf30
# B3: Adenovirus type 30 (Ad30) fiber on wild-type Ad30 virus (other)
# chain: MSKRLRVEDDFNPVYPYGYARNQNIPFLTPPFVSSDGFKNFPPGVLSLKLADPIAITNGDVSLKVGGGLTVEQDSGNLSVNPKAPLQVGTDKKLELALAPPFDVRDNKLAILVGDGLKVIDRSISDLPGLLNYLVVLTGKGIGNEELKNDDGSNKGVGLCVRIGEGGGLTFDDKGYLVAWNNKHDIRTIWTTLDPSPNCKIDIEKDSKLTLVLTKCGSQILANVSLIIVNGKFKILNNKTDPSLPKSFNIKLLFDQNGVLLENSNIEKQYLNFRSGDSILPEPYKNAIGFMPNLLAYAKATTDQSKIYARNTIYGNIYLDNQPYNPVVIKITFNNEADSAYSITFNYSWTKDYDNIPFDSTSFTFSYIAQE
# notes: Tested as 3H-labelled wild-type Ad30 virions; also called Ad30 wildtype; Ad30 (VR-273)
# How the values were obtained:
# [1] = target: T1, Human coxsackie-adenovirus receptor …
# [2] = target: T2, Soluble human transferrin receptor, purified extracellular domain (human, UniProt P02786 89-760); test: pull-down of fiber lysate with soluble hTfR on anti-hTfR antibody 128.1 beads, Western blot with 4D2.5
# T2 construct: extracellular domain; Gift material; also called hTfR; soluble hTfR
# T2 sequence (P02786 89-760): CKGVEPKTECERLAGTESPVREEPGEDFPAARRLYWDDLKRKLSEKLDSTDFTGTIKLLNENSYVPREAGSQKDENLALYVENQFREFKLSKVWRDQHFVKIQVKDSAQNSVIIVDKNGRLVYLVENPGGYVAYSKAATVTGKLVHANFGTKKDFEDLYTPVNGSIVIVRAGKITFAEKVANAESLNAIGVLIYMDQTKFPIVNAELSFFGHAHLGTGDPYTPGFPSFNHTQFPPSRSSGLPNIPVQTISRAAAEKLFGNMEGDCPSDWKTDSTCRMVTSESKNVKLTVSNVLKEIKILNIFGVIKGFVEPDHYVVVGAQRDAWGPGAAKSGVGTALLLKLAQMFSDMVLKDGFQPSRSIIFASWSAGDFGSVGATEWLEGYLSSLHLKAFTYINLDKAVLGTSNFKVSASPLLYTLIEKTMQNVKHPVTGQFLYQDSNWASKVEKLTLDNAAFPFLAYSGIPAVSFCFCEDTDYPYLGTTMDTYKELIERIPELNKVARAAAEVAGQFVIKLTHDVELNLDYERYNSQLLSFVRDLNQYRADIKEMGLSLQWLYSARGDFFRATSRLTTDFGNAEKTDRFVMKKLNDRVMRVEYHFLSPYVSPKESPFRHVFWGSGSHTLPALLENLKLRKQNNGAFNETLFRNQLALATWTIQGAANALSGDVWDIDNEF
# [3] = target: T2, Soluble human transferrin receptor, …; test: phage display panning on immobilised hTfR extracellular domain, three rounds
# Text: Enzyme-linked immunosorbent assay (ELISA) plates were coated with soluble hTfR, and bound phage were eluted by a low-pH buffer. Eluted phage were amplified in E. coli K91 and subsequently screened again for binding to the immobilized hTfR. In separate experiments, bound phage were eluted with purified transferrin holoenzyme. Three rounds of screening-amplification were done for each type of elution.
# Phage screening. Ten microliters of amplified nonapeptide phage library (a generous gift from Al Jesaitis, Montana State University) was screened against the purified extracellular domain of hTfR (kindly provided by Martin Lawrence, Harvard University) coated on 96-well microtiter plates in 100 μl of 0.05 M carbonate buffer (pH 9.6). In the first panning, hTfR was coated at 100 μg/ml. Subsequent pannings were done with decreasing concentrations of hTfR for increased stringency (10 and 1 μg/ml for the second and third pannings, respectively). Bound phage were eluted with low-acid buffer (0.1 M glycine, pH 2.2) or ligand (iron-loaded human transferrin; Sigma-Aldrich) in TBS buffer (50 mM Tris-Cl, pH 7.5; 150 mM NaCl). After three successive rounds of panning and amplification, clones were picked and sequenced as described elsewhere.
# [4] = target: T1, Human coxsackie-adenovirus receptor …; test: 3H-labelled virus binding to CHO cells with or without hCAR, 1 h on ice
Binder,binding result [3],binding result [4],also measured
B1,–,–,fold increase in bound particles with CAR expression [1]: 3.6 fold; binding result [2]: no binding
AIAKKHKWN [Phage displaying peptide AIAKKHKWN],binds,–,–
GKGPKWMR [Phage displaying peptide GKGPKWMR],binds,–,–
KWKLHGHIK [Phage displaying peptide KWKLHGHIK],binds,–,–
B2,–,no binding,–
B3,–,no binding,–
